Test results taken from patent publication US20260242492A1 (JOINT STOCK COMPANY BIOCAD, published 2026).

Experiments:
[1] = target: T1, biotinylated peptide [NH2]CEPANPSEKNSPSTQYCYSIQS[CH2CH2]biotin comprising a fragment of the human CD20 … (human, [NH2] at the N-terminus; [CH2CH2]biotin at the C-terminus (so in the source)); experiment: BLI (Octet RED 384), biotinylated CD20 peptide on SAX sensors, antibody-like molecule as analyte, 1:1 model, global fit
T1 construct: Immobilized on streptavidin (SAX) sensors; also called CD20 peptide
T1 peptide: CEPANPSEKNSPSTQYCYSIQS
Procedure: (§1) Experiments were carried out using a kinetic buffer solution (hereinafter referred to as 1×KB); volume fraction of added Tween 20 was 0.1%; mass fraction of added BSA (bovine serum albumin) was 0.1%; pH 7.4. Before the measurement, the ProA sensors were regenerated with a solution of 50 mM glycine and hydrochloric acid, pH 1.8 (5 seconds in the regenerating solution, 5 seconds in 1×KB, three repetitions).
In the case of biotinylated […], the peptide at a concentration of 2.5 μg/ml was immobilized on the surface of SAX sensors (High Precision Streptavidin (SAX) biosensors, ForteBio) for 300 seconds. The baseline was recorded in a 1×KB solution for 120 seconds. Sensors loaded with peptide were then immersed into wells containing the solution of antibody-like molecule (analyte) in 1×KB for 300 seconds. Measurements were performed for solutions with analyte (antibody-like molecule in case of CD20 peptide) at concentrations […] and 75 µg/ml. Complex dissociation was recorded in 1×KB for 60 seconds.
(§2) To obtain numerical values of kinetic constants (kon is the on/association rate constant, kdis is the dissociation rate constant, KD is the equilibrium dissociation constant or affinity constant), the resulting sensograms were processed according to the 1:1 interaction model using Global Fit (selection of one set of kon, kdis, KD constants to analyze several sensograms of different concentrations) of the ForteBio Octet Data Analysis 9.0 software.

[2] = target: T2, extracellular domain of the human CSF1R protein (hCSF1R_His) (human, UniProt P07333 20-512); experiment: BLI (Octet RED 384), antibody-like molecule on ProA sensors, hCSF1R_His analyte 174.2 nM, 1:1 model
T2 construct: range 20-512; Made in CHO cells, molecular weight 57.4 kDa as printed; not shown: C-terminal His-tag and FLAG-tag
Procedure: as §1
In the case of the hPDlex-H6F and hCSF1R_His antigens, the Protein A (ProA) biosensors (ForteBio) were immersed in a solution with antibody-like molecules at a concentration of 10 µg/ml for 300 seconds to immobilize same. The baseline was recorded in 1×KB for 120 seconds. Sensors loaded with the antibody-like molecule were then immersed into wells containing a solution of the target antigen (analyte) in a kinetic buffer for 300 seconds. Measurements were performed for solutions with hPDlex-H6F analyte at concentrations of 10 µg/ml (485.4 nM), for solutions with hCSF1R_His analyte at concentrations of 10 µg/ml (174.2 nM). Complex dissociation in 1×KB was then detected for 600 seconds.
as §2

T2 sequence (P07333 20-512 limits assumed): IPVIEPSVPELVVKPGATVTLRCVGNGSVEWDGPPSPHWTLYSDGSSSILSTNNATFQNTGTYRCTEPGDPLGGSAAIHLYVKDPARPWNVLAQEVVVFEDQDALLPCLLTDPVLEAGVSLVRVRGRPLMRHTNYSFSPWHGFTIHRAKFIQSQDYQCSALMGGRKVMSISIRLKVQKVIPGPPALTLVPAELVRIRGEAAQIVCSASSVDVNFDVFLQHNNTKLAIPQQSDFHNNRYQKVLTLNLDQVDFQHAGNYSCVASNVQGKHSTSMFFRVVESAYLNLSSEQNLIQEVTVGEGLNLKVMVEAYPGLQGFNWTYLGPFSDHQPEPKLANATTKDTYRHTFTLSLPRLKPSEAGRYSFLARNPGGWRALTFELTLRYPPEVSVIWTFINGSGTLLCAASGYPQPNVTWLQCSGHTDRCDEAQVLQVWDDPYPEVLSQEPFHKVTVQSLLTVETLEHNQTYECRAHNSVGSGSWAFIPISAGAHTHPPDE

Kd [1]: 2600 nM | koff [1]: 0.418 s⁻¹ | kon [1]: 161000 M⁻¹ s⁻¹ | Kd [2]: 1.92 nM | koff [2]: 0.000372 s⁻¹ | kon [2]: 194000 M⁻¹ s⁻¹
B1: antibody-like molecule 08-006 (binds CSF1R and CD20) (bispecific antibody, human IgG1, kappa, L234A L235A)
heavy 1: QVQLVESGGGLVRPGGSLRLSCAASEFTFDDYAMSWVRQAPGKGLEWVSAISWNGGSTNYADSVKGRFTISRDNAKNSLYLQMNSLRAEDTALYYCASTVEVAHRRLYKYLEVWGQGTLVTVSSASTKGPSVFPLAPSSKSTSGGTAALGCLVKDYFPEPVTVSWNSGALTSGVHTFPAVLQSSGLYSLSSVVTVPSSSLGTQTYICNVNHKPSNTKVDKRVEPKSCDKTHTCPPCPAPEAAGGPSVFLFPPKPKDTLYITREPEVTCVVVDVSHEDPEVKFNWYVDGVEVHNAKTKPREEQYNSTYRVVSVLTVLHQDWLNGKEYKCKVSNKALPAPIEKTISKAKGQPREPQVCTLPPSRDELTKNQVSLSCAVKGFYPSDIAVEWESNGQPENNYKTTPPVLDSDGSFFLVSKLTVDKSRWQQGNVFSCSVMHEALHNHYTQKSLSLSPGK
light 1: QAGLTQPPSVSVAPGQTARITCGGNNIGSKSVHWYQQKPGQAPVLVVYGDSDRPSGIPERFSGSNSGNTATLTISRVEAGDEADYYCQVWDISSDHVVFGGGTQLTVLRTVAAPSVFIFPPSDEQLKSGTASVVCLLNNFYPREAKVQWKVDNALQSGNSQESVTEQDSKDSTYSLSSTLTLSKADYEKHKVYACEVTHQGLSSPVTKSFNRGEC
heavy 2: not shown
light 2: DIQMTQSPSSLSASVGDRVTITCRASSSVSYMHWYQQKPGKAPKPLIYAPSNLASGVPSRFSGSGSGTDFTLTISSLQPEDFATYYCQQWSFNPPTFGQGTKVEIKQRQVKPEAWLSKGPSPGPGRLQLVCHVSGFYPKPVWVMWMRGEQEQQGTQLGDILPNADWTWYLRATLDVADGEAAGLSCRVKHSSLEGQDIILYWRGSC
notes: Four distinct chains: anti-CSF1R Fab arm (hole) and Ocrelizumab Fab-like arm with b2m/CD1b alpha3 dimerization unit (knob)
